The source of these data is CN114106160A.

For this assay, the target named is SARS-CoV-2 S1蛋白 (ACRO Biosystems) (SARS-CoV-2) (UniProt P0DTC2). Briefly: BLI, biotinylated SARS-CoV-2 S1 on SA sensor, antibody as analyte, 1:1 model. Background: In BLI a coated tip is dipped into the sample, and binding shifts an interference pattern.

As to 人源抗体CR3022 (antibody), the dissociation constant (Kd) was determined as 86.6 pM, the koff is 1.9e-05 s⁻¹ and the kon amounted to 220000 M⁻¹ s⁻¹.

The term Kd denotes a measure of binding affinity in units of concentration. Read a high Kd as lower affinity. What is called koff is the first-order rate constant of dissociation. For orientation: kon means the rate constant with which the complex forms.
